Measured values: patent US20160272683A1 (Novo Nordisk, published 2016)
One block for each binder: values may come before it. Numbered stars: 1 amine (or outer) side, 2 acyl side, 3 side chain; on linkers, the order of the positions; unused ones are H or OH. * marks the point of attachment. C20 diacid = O=C(O)CCCCCCCCCCCCCCCCCCC(=O)*; C18 diacid = O=C(O)CCCCCCCCCCCCCCCCC(=O)*; C16 diacid = O=C(O)CCCCCCCCCCCCCCC(=O)*; γGlu = O=C(O)[C@H](CCC(=O)[*:2])N[*:1]

Columns and labels:
[1] = target: T1, human calcitonin receptor (human, UniProt P30988 25-474); assay: cell-based or functional assay
T1 sequence (looked up): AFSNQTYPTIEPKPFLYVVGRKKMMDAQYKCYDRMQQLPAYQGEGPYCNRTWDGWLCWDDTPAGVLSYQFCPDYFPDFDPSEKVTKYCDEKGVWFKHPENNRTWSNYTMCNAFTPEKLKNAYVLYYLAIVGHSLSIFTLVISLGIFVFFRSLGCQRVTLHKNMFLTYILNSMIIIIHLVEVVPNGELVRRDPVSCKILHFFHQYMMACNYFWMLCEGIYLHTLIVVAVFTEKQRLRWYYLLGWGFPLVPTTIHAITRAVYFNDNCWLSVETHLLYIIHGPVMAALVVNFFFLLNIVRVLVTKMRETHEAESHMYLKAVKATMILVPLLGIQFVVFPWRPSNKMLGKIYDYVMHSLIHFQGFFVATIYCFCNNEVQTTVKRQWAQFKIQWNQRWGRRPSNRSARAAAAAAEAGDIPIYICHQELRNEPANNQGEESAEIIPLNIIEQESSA

[2] = target: T2, human amylin 3(a) receptor (human calcitonin receptor co-expressed with RAMP-3) (human, UniProt P30988 25-474; O60896 24-148, limits assumed); assay: cell-based or functional assay
T2 sequence (looked up) 1: T1 sequence (looked up)
T2 sequence (looked up) 2: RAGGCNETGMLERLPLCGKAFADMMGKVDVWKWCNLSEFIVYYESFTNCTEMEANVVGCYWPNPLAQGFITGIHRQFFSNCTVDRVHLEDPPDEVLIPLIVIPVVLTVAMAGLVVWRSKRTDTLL

hCTR funct. EC50 (pM) [1]: 14 pM
hAmylin-R funct. EC50 (pM) [2]: 12 pM
B1: [N-terminal(C20 diacid-gGlu), 23Y, 30S, 31G]mimylin (peptide)
peptide: {C20 diacid-γGlu}-EASELSTAALGRLSAELHELATYPRTETGSGSP-NH2
SMILES: CC(C)C[C@H](NC(=O)[C@H](C)NC(=O)[C@H](C)NC(=O)[C@@H](NC(=O)[C@H](CO)NC(=O)[C@H](CC(C)C)NC(=O)[C@H](CCC(=O)O)NC(=O)[C@H](CO)NC(=O)[C@H](C)NC(=O)[C@H](CCC(=O)O)NC(=O)CC[C@H](NC(=O)CCCCCCCCCCCCCCCCCCC(=O)O)C(=O)O)[C@@H](C)O)C(=O)NCC(=O)N[C@@H](CCCNC(=N)N)C(=O)N[C@@H](CC(C)C)C(=O)N[C@@H](CO)C(=O)N[C@@H](C)C(=O)N[C@@H](CCC(=O)O)C(=O)N[C@@H](CC(C)C)C(=O)N[C@@H](Cc1c[nH]cn1)C(=O)N[C@@H](CCC(=O)O)C(=O)N[C@@H](CC(C)C)C(=O)N[C@@H](C)C(=O)N[C@H](C(=O)N[C@@H](Cc1ccc(O)cc1)C(=O)N1CCC[C@H]1C(=O)N[C@@H](CCCNC(=N)N)C(=O)N[C@H](C(=O)N[C@@H](CCC(=O)O)C(=O)N[C@H](C(=O)NCC(=O)N[C@@H](CO)C(=O)NCC(=O)N[C@@H](CO)C(=O)N1CCC[C@H]1C(N)=O)[C@@H](C)O)[C@@H](C)O)[C@@H](C)O

hCTR funct. EC50 (pM) [1]: 12 pM
hAmylin-R funct. EC50 (pM) [2]: 31 pM
B2: [N-terminal(C18 diacid), 9V, 28P]mimylin (peptide)
peptide: {C18 diacid}-EASELSTAVLGRLSAELHELATLPRTEPGPESP-NH2
SMILES: CC(C)C[C@H](NC(=O)[C@H](CCC(=O)O)NC(=O)[C@H](Cc1c[nH]cn1)NC(=O)[C@H](CC(C)C)NC(=O)[C@H](CCC(=O)O)NC(=O)[C@H](C)NC(=O)[C@H](CO)NC(=O)[C@H](CC(C)C)NC(=O)[C@H](CCCNC(=N)N)NC(=O)CNC(=O)[C@H](CC(C)C)NC(=O)[C@@H](NC(=O)[C@H](C)NC(=O)[C@@H](NC(=O)[C@H](CO)NC(=O)[C@H](CC(C)C)NC(=O)[C@H](CCC(=O)O)NC(=O)[C@H](CO)NC(=O)[C@H](C)NC(=O)[C@H](CCC(=O)O)NC(=O)CCCCCCCCCCCCCCCCC(=O)O)[C@@H](C)O)C(C)C)C(=O)N[C@@H](C)C(=O)N[C@H](C(=O)N[C@@H](CC(C)C)C(=O)N1CCC[C@H]1C(=O)N[C@@H](CCCNC(=N)N)C(=O)N[C@H](C(=O)N[C@@H](CCC(=O)O)C(=O)N1CCC[C@H]1C(=O)NCC(=O)N1CCC[C@H]1C(=O)N[C@@H](CCC(=O)O)C(=O)N[C@@H](CO)C(=O)N1CCC[C@H]1C(N)=O)[C@@H](C)O)[C@@H](C)O

hCTR funct. EC50 (pM) [1]: 6 pM
hAmylin-R funct. EC50 (pM) [2]: 14 pM
B3: [N-terminal(C18 diacid), 9V, 25P]mimylin (peptide)
peptide: {C18 diacid}-EASELSTAVLGRLSAELHELATLPPTETGPESP-NH2
SMILES: CC(C)C[C@H](NC(=O)[C@H](CCC(=O)O)NC(=O)[C@H](Cc1c[nH]cn1)NC(=O)[C@H](CC(C)C)NC(=O)[C@H](CCC(=O)O)NC(=O)[C@H](C)NC(=O)[C@H](CO)NC(=O)[C@H](CC(C)C)NC(=O)[C@H](CCCNC(=N)N)NC(=O)CNC(=O)[C@H](CC(C)C)NC(=O)[C@@H](NC(=O)[C@H](C)NC(=O)[C@@H](NC(=O)[C@H](CO)NC(=O)[C@H](CC(C)C)NC(=O)[C@H](CCC(=O)O)NC(=O)[C@H](CO)NC(=O)[C@H](C)NC(=O)[C@H](CCC(=O)O)NC(=O)CCCCCCCCCCCCCCCCC(=O)O)[C@@H](C)O)C(C)C)C(=O)N[C@@H](C)C(=O)N[C@H](C(=O)N[C@@H](CC(C)C)C(=O)N1CCC[C@H]1C(=O)N1CCC[C@H]1C(=O)N[C@H](C(=O)N[C@@H](CCC(=O)O)C(=O)N[C@H](C(=O)NCC(=O)N1CCC[C@H]1C(=O)N[C@@H](CCC(=O)O)C(=O)N[C@@H](CO)C(=O)N1CCC[C@H]1C(N)=O)[C@@H](C)O)[C@@H](C)O)[C@@H](C)O

hCTR funct. EC50 (pM) [1]: 54 pM
hAmylin-R funct. EC50 (pM) [2]: 23 pM
B4: [N-terminal(C18 diacid), 5V, 9V, 20V]mimylin (peptide)
peptide: {C18 diacid}-EASEVSTAVLGRLSAELHEVATLPRTETGPESP-NH2
SMILES: CC(C)C[C@H](NC(=O)[C@H](CCCNC(=N)N)NC(=O)CNC(=O)[C@H](CC(C)C)NC(=O)[C@@H](NC(=O)[C@H](C)NC(=O)[C@@H](NC(=O)[C@H](CO)NC(=O)[C@@H](NC(=O)[C@H](CCC(=O)O)NC(=O)[C@H](CO)NC(=O)[C@H](C)NC(=O)[C@H](CCC(=O)O)NC(=O)CCCCCCCCCCCCCCCCC(=O)O)C(C)C)[C@@H](C)O)C(C)C)C(=O)N[C@@H](CO)C(=O)N[C@@H](C)C(=O)N[C@@H](CCC(=O)O)C(=O)N[C@@H](CC(C)C)C(=O)N[C@@H](Cc1c[nH]cn1)C(=O)N[C@@H](CCC(=O)O)C(=O)N[C@H](C(=O)N[C@@H](C)C(=O)N[C@H](C(=O)N[C@@H](CC(C)C)C(=O)N1CCC[C@H]1C(=O)N[C@@H](CCCNC(=N)N)C(=O)N[C@H](C(=O)N[C@@H](CCC(=O)O)C(=O)N[C@H](C(=O)NCC(=O)N1CCC[C@H]1C(=O)N[C@@H](CCC(=O)O)C(=O)N[C@@H](CO)C(=O)N1CCC[C@H]1C(N)=O)[C@@H](C)O)[C@@H](C)O)[C@@H](C)O)C(C)C

hCTR funct. EC50 (pM) [1]: 5 pM
hAmylin-R funct. EC50 (pM) [2]: 10 pM
B5: [N-terminal(C18 diacid), 5I, 9I, 10I]mimylin (peptide)
peptide: {C18 diacid}-EASEISTAIIGRLSAELHELATLPRTETGPESP-NH2
SMILES: CC[C@H](C)[C@H](NC(=O)[C@H](C)NC(=O)[C@@H](NC(=O)[C@H](CO)NC(=O)[C@@H](NC(=O)[C@H](CCC(=O)O)NC(=O)[C@H](CO)NC(=O)[C@H](C)NC(=O)[C@H](CCC(=O)O)NC(=O)CCCCCCCCCCCCCCCCC(=O)O)[C@@H](C)CC)[C@@H](C)O)C(=O)N[C@H](C(=O)NCC(=O)N[C@@H](CCCNC(=N)N)C(=O)N[C@@H](CC(C)C)C(=O)N[C@@H](CO)C(=O)N[C@@H](C)C(=O)N[C@@H](CCC(=O)O)C(=O)N[C@@H](CC(C)C)C(=O)N[C@@H](Cc1c[nH]cn1)C(=O)N[C@@H](CCC(=O)O)C(=O)N[C@@H](CC(C)C)C(=O)N[C@@H](C)C(=O)N[C@H](C(=O)N[C@@H](CC(C)C)C(=O)N1CCC[C@H]1C(=O)N[C@@H](CCCNC(=N)N)C(=O)N[C@H](C(=O)N[C@@H](CCC(=O)O)C(=O)N[C@H](C(=O)NCC(=O)N1CCC[C@H]1C(=O)N[C@@H](CCC(=O)O)C(=O)N[C@@H](CO)C(=O)N1CCC[C@H]1C(N)=O)[C@@H](C)O)[C@@H](C)O)[C@@H](C)O)[C@@H](C)CC

hCTR funct. EC50 (pM) [1]: 8 pM
hAmylin-R funct. EC50 (pM) [2]: 13 pM
B6: [N-terminal(C18 diacid-gGlu), des1, 30S, 31P]mimylin (peptide)
peptide: {C18 diacid-γGlu}-ASELSTAALGRLSAELHELATLPRTETGSPSP-NH2
SMILES: CC(C)C[C@H](NC(=O)[C@H](C)NC(=O)[C@H](C)NC(=O)[C@@H](NC(=O)[C@H](CO)NC(=O)[C@H](CC(C)C)NC(=O)[C@H](CCC(=O)O)NC(=O)[C@H](CO)NC(=O)[C@H](C)NC(=O)CC[C@H](NC(=O)CCCCCCCCCCCCCCCCC(=O)O)C(=O)O)[C@@H](C)O)C(=O)NCC(=O)N[C@@H](CCCNC(=N)N)C(=O)N[C@@H](CC(C)C)C(=O)N[C@@H](CO)C(=O)N[C@@H](C)C(=O)N[C@@H](CCC(=O)O)C(=O)N[C@@H](CC(C)C)C(=O)N[C@@H](Cc1c[nH]cn1)C(=O)N[C@@H](CCC(=O)O)C(=O)N[C@@H](CC(C)C)C(=O)N[C@@H](C)C(=O)N[C@H](C(=O)N[C@@H](CC(C)C)C(=O)N1CCC[C@H]1C(=O)N[C@@H](CCCNC(=N)N)C(=O)N[C@H](C(=O)N[C@@H](CCC(=O)O)C(=O)N[C@H](C(=O)NCC(=O)N[C@@H](CO)C(=O)N1CCC[C@H]1C(=O)N[C@@H](CO)C(=O)N1CCC[C@H]1C(N)=O)[C@@H](C)O)[C@@H](C)O)[C@@H](C)O

hCTR funct. EC50 (pM) [1]: 7 pM
hAmylin-R funct. EC50 (pM) [2]: 8 pM
B7: [N-terminal(C18 diacid), 9V, 18A]mimylin (peptide)
peptide: {C18 diacid}-EASELSTAVLGRLSAELAELATLPRTETGPESP-NH2
SMILES: CC(C)C[C@H](NC(=O)[C@H](CCC(=O)O)NC(=O)[C@H](C)NC(=O)[C@H](CO)NC(=O)[C@H](CC(C)C)NC(=O)[C@H](CCCNC(=N)N)NC(=O)CNC(=O)[C@H](CC(C)C)NC(=O)[C@@H](NC(=O)[C@H](C)NC(=O)[C@@H](NC(=O)[C@H](CO)NC(=O)[C@H](CC(C)C)NC(=O)[C@H](CCC(=O)O)NC(=O)[C@H](CO)NC(=O)[C@H](C)NC(=O)[C@H](CCC(=O)O)NC(=O)CCCCCCCCCCCCCCCCC(=O)O)[C@@H](C)O)C(C)C)C(=O)N[C@@H](C)C(=O)N[C@@H](CCC(=O)O)C(=O)N[C@@H](CC(C)C)C(=O)N[C@@H](C)C(=O)N[C@H](C(=O)N[C@@H](CC(C)C)C(=O)N1CCC[C@H]1C(=O)N[C@@H](CCCNC(=N)N)C(=O)N[C@H](C(=O)N[C@@H](CCC(=O)O)C(=O)N[C@H](C(=O)NCC(=O)N1CCC[C@H]1C(=O)N[C@@H](CCC(=O)O)C(=O)N[C@@H](CO)C(=O)N1CCC[C@H]1C(N)=O)[C@@H](C)O)[C@@H](C)O)[C@@H](C)O

hCTR funct. EC50 (pM) [1]: 4 pM
hAmylin-R funct. EC50 (pM) [2]: 8 pM
Binder: {C16 diacid}-EASELSTAALGRLSAELHELATLPRTETGPESP-NH2 [[N-terminal(C16 diacid)]mimylin]
